For the test, the target named is MCPyV KLL epitope presented by HLA-A*02:01 on cells (human; Merkel cell polyomavirus), A*02:0. Put plainly: cell-based or functional assay.

B1: w876 clonotype 8 TCR (TCR)
TCR alpha: CVVYASKIIF
TCR beta: CASSDTPDLNTEAFF
On to B1, for which the EC50 (ng/uL DNA), IFN-γ secretion, COS-7 + HLA-A*02:01 + tLTAg plasmid was determined as 4.2 ng/µL DNA.

B2: w876 clonotype 14 TCR (TCR)
TCR alpha: CVVPSAGKSTF
TCR beta: CASSEFAGQETQYF
In the case of B2, the EC50 (ng/uL DNA), IFN-γ secretion, COS-7 + HLA-A*02:01 + tLTAg plasmid amounted to 5.4 ng/µL DNA.

B3: w830 clonotype 3 TCR (TCR)
TCR alpha: CAYPSTDKLIF
TCR beta: CASSILGASNQPQHF
With B3, the EC50 (ng/uL DNA), IFN-γ secretion, COS-7 + HLA-A*02:01 + tLTAg plasmid worked out at 270 ng/µL DNA.

B4: w876 clonotype 13 TCR (TCR)
TCR alpha: CVVTDTSGGGADGLTF
TCR beta: CASSLAGLAGTDTQYF
With B4, the EC50 (ng/uL DNA), IFN-γ secretion, COS-7 + HLA-A*02:01 + tLTAg plasmid turned out to be 3.9 ng/µL DNA.

Source of the values: patent US20200030378A1.
